# From paper PMC9911985 (Journal of Molecular Biology, 2023)
# Where no end group is shown, it is not given here. MBP = not defined here
# Target: nsp7 with a C-terminal strep-tag II (nsp7-strep), SARS-CoV-2 nonstructural protein 7 (SARS-CoV-2, UniProt P0DTD1 3860-3942)
# Assay: pull-down
row,Binder,binding result
1,"{6xHis-MBP}-SCILLYVVFQKLSARLRALRQRQLDR (domain or fragment, reading uncertain) [6xHis-MBP-selenos 40–65]",binds
2,"{6xHis-MBP}-GWYIVFSCILLYVVFQKLSARLRALR (domain or fragment, reading uncertain) [6xHis-MBP-selenos 34–59]",binds
3,"{6xHis-MBP}-GWYIVFSCILLYVVFQKLSARLRALRQRQLDR (domain or fragment, reading uncertain) [6xHis-MBP-selenos 34–65]",binds
4,"{6xHis-MBP}-SCILLYVVFQKLSARLRALR (domain or fragment, reading uncertain) [6xHis-MBP-selenos 40–59]",binds
